For experiment [1], the target named is cynomolgus monkey FolRα overexpressed on CHO cells (Macaca fascicularis, UniProt A0A2K5U044). The experiment is described as follows: flow cytometry on cells.
Experiment [2] concerns the target Recombinantly-expressed FolRα extracellular domain (Acro Biosystems) (Homo sapiens, UniProt P15328). Kind of experiment: SPR.

B1: anti-FolRα antibody SP8166 (antibody, V domains shown)
VH: EVQLVESGGGLVQPGGSLRLSCAASGFNIRTQSIHWVRQAPGKGLEWIGDIFPIDGITDYADSVKGRFTISADTSKNTAYLQMNSLRAEDTAVYYCARGSWSWPSGMDYYLDYWGQGTLVTVSS
VL: not shown
Regarding B1, the binding result in experiment [1] was “binds”. Also, in experiment [2], the Kd worked out at 2.3 nM.

By Kd is commonly meant a measure of binding affinity in units of concentration.

The record behind these values is article PMC9890132 (Molecular Cancer Therapeutics, 2022).
